The source of these data is article PMC9964033.

One assay deals with Wdr77. Put plainly: interactome comparison (volcano plot). As to conditions: CPEB3 and S240-242A expressed in mouse neuroblastoma N2A cells; read off a plot.
Another assay concerns the target Gls. As to the kind of experiment: interactome comparison (volcano plot). The settings on record: CPEB3 and S240-242A expressed in mouse neuroblastoma N2A cells; read off a plot.

In the case of “CPEB3 (full-length), expressed in mouse neuroblastoma N2A cells (from UniProt Q7TN99) S240A; S241A; S242A”, the other: Log2(Fold Change (Mut/FL)) with Wdr77 is -4.2; with Gls, 2.8.
